Reference: patent US20260258153A1 (WISTAR INSTITUTE OF ANATOMY AND BIOLOGY, published 2026)

Molecular target: carbonic anhydrase 9 (CA9) (UniProt Q16790 38-459)
Assay: cell-based or functional assay

- EC50 (pM), cell line 293T-CA9: 13.2 pM
- EC50 (pM), cell line 786-O: 82.5 pM
- EC50 (pM), cell line A-498: 21.4 pM
- EC50 (pM), cell line ACHN-CA9: 38.7 pM
- EC50 (pM), cell line SKRC-52: 1.5 pM
B1: BTE (canonical CA9 x CD3 bispecific T cell engager; G37_DBiTE, Non-HLV) (bispecific antibody)
chain: QSVLTQPPSVSGAPGQRVTISCTGSSSNIGAGYDVHWYQHLPGTAPKLLIYGNSNRPSGVPDRFSGSKSGTSASLAITGLQAEDETDYFCQSYDSSLSAWVFGGGTKVTVLGGGGSGGGGSGGGGSQVQLVQSGGGVVQPGGSLRLSCAASGFPFSSYAMSWVRQAPGKGLEWVSAISANGGTTYYADSVKGRFTISRDNSKNTLYLQMNSLRAEDTAVYYCANNGNYRGAFDIWGQGTMVTVSSGGGGSEVQLVESGGGLVQPGGSLRLSCAASGYSFTGYTMNWVRQAPGKGLEWVALINPYKGVSTYNQKFKDRFTISVDKSKNTAYLQMNSLRAEDTAVYYCARSGYYGDSDWYFDVWGQGTLVTVSSGGGGSGGGGSGGGGSDIQMTQSPSSLSASVGDRVTITCRASQDIRNYLNWYQQKPGKAPKLLIYYTSRLESGVPSRFSGSGSGTDYTLTISSLQPEDFATYYCQQGNTLPWTFGQGTKVEIKSSHHHHHH
